Common to all, as to experiment: HPLC of glucoside product
Common to all, as to type: biochemical, Camellia sinensis

Substrate in data set [1]: O=c1c(O)c(-c2ccc(O)cc2)oc2cc(O)cc(O)c12
The settings on record: UDP-glucose as sugar donor; optimum pH 9.5, 40 °C; pH 9.5; 40.0 °C.

Substrate in data set [2]: O=C(O)/C=C/c1ccc(O)cc1
The settings on record: UDP-glucose as sugar donor; optimum pH 6.5, 40 °C; pH 6.5; 40.0 °C.

Substrate in data set [3]: O=C(O)Cc1c[nH]c2ccccc12
The settings on record: UDP-glucose as sugar donor; optimum pH 6.5, 30 °C; pH 6.5; 30.0 °C.

Drawing on paper PMC10282599, “Al-induced CsUGT84J2 enhances flavonol and auxin accumulation to promote root growth in tea plants” (Horticulture Research, 2023), this text covers Km for one protein.

A word on the Km: it is the concentration of substrate that gives half-maximal velocity.

B1: rCsUGT84J2 (TEA000239) (Camellia sinensis) (protein)
chain: MAAMEKKEEIHVLMVAFSSQGHINPMLRLAKRLHSKGLHVTLATTEIARHRMLTSSSATTTAVAANSIDGISLAFFSDGLSLDYDRKTNLDHYMDSLGRAGPANLSSIILHHHSHGGRKFSCIVTNPFIPWAADVAAEHGIPCALLWIQPCSLYSIYYRFYNHLNQFPSSANPNMSVELPGLPLLNTEDLPSFVLPSNPFGSFPKLFCGLFQNMQKMKWVLANSFHELESQAIDSMFDIHPVLPIGPLVPPSILGEDQAVDAGVEMWKSEDNCIEWLDQQQPNSVIYVSFGSVVILSPLQMESIATGLKNCNRPFLWVVKKSDYTAKEGEGQLPLGFLEETKGRGLVVQWSPQIKVLMNPAVGCFLTHCGWNSMLETIAAGVPVIAYPQWTDQPTNAKLMAEVLRVGVRLRPNQDGVVTNEEVERRIEDVMCGPEAEEFREKAAELKVAARVAVADGGSSDRNIQLFVDEIIGDSST
Consider B1, for which the Km in data set [1] amounted to 0.127 µM; in data set [2] it was 0.243 µM; in data set [3] it was 0.522 µM.
